Measurements as given in patent publication US20240425556A1, “MYOPEPTIDES AND METHODS OF USE IN TREATING HEART FAILURE” (University of Cincinnati, priority 2021, published 2024).
Each block holds one molecule with its values, some of them ahead of it.

B1: recombinant C0-C2 protein (C0, C1 and C2 domains of cardiac myosin binding protein-C) with 6X his-tag (other)
chain: MPEPGKKPVSAFNKKPRSAEVTAGSAAVFEAETERSGVMVRWQRDGSDITANDKYGLAAEGKRHTLTVRDASPDDQGSYAVIAGSSKVKFDLKVTEPAPPEKAESEVAPGAPEEVPAPATELEESVSSPEGSVSVTQDGSAAEHQGAPDDPIGLFLMRPQDGEVTVGGSIVFSARVAGASLLKPPVVKWFKGKWVDLSSKVGQHLQLHDSYDRASKVYLFELHITDAQTTSAGGYRCEVSTKDKFDSCNFNLTVHEAIGSGDLDLRSAFRRTSLAGAGRRTSDSHEDAGTPDFSSLLKKRDSFRRDSKLEAPAEEDVWEILRQAPPSEYERIAFQHGVEACHRPLKRLKGMKQDEKKSTAFQKKLEPAYQVNKGHKIRLTVELADPDAEVKWLKNGQEIQMSGSKYIFESVGAKRTLTISQCSLADDAAYQCVVGGEKCSTELFVKEP
B2: recombinant S2^126 (proximal 126 amino acid sub-fragment 2 region of myosin) with 6X his-tag (other)
chain: PLLKSAETEKEMANMKEEFGRVKDALEKSEARRKELEEKMVSLLQEKNDLQLQVQAEQDNLNDAEERCDQLIKNKIQLEAKVKEMTERLEDEEEMNAELTAKKRKLEDECSELKKDIDDLELTLAK
notes: The position of the his-tag is unknown; also called mouse myosin S2; not shown: 6X his-tag
B3: PLLKSAETEKEMANMKEEFGRVKDALEKSEARRKELEEKMVSLLQEKNDLQLQVQAEQDNLNDAEERCDQLIKNKIQLEAKVKEMTERLEDEEEMNAELTAKKRKLEDECSELKKDIDDLELTLAK (protein, listed as Mus musculus)
chain: B2 chain
modifications: 6X His tag
notes: recombinant proximal 126 amino acid fragment of myosin S2 with 6X his-tag, expressed in E. coli

Legend:
S2^126-C0-C2 binding = molecular target: T1, S2^126-C0-C2 binding (Homo sapiens, UniProt Q14896); experiment: Solid phase binding assay (SPBA), competition for S2^126-C0-C2 binding; settings: for ability to compete for S2^126-C0-C2 binding: SPBA, FIGS. 3A and 3B
T1 construct: 6X His; made in house; host or cells: E. coli BL21
Protocol: Peptides of Table 1 were tested in vitro to determine whether they compete for binding in the interaction between S2^126 and the C0-C2 protein. In these experiments, recombinant S2^126 and C0-C2 protein with 6X his-tags were bacterially expressed in BL21 E. coli and then purified through Talon© metal affinity columns. A solid phase binding assay (SPBA) was then performed, whereby 20 μM of the C0-C2 protein was adsorbed onto wells of a 96-well microtiter plate. Then, 20 μM of S2^126, along with increasing concentrations of selected experimental peptides from Table 1, ranging from 0-20 μM, were added.
The following procedure identified the competitive nature of the tested experimental peptides from Table 1. […] The Alexa Fluor 568© secondary antibody (anti-rabbit) would then bind to the primary antibody to give a relative positive fluorescence of 1.0. Conversely, if the experimental peptide successfully competed with the S2^126-C0-C2 binding. then the S2^126 site would not be available for binding by the primary antibody. Therefore, the secondary antibody would also fail to bind, leading to a decrease in the relative fluorescence below 1.0. As a result, for a non-competing peptide, the relative fluorescence approaches 1.0, as observed by S2^126-C0-C2 binding. For a competing peptide, a decay in the relative fluorescence is observed. This SPBA assay was used to screen peptides for efficacy in disrupting the interaction between S2^126-C0-C2.

[1] = system: skinned papillary fibers from mouse hearts; experiment: Maximal force (Fmax) of skinned papillary muscle fibers versus calcium concentration; settings: for effect on muscle / contractile function: summary statement
Protocol: The ability of the experimental peptides to increase or otherwise affect contractility in the heart muscle system was tested using skinned papillary fibers from mouse hearts. In this ex vivo experiment, cardiac papillary fibers from mouse hearts were isolated and skinned overnight in 1% Triton X-100 low calcium buffer supplemented with ATP, creatine phosphate, and magnesium chloride. Because skinned muscle fibers are devoid of sarcolemma, nuclei, and sarcoplasmic reticulum, the fibers can only contract if supplemented with calcium, magnesium chloride, ATP, and creatine phosphate. This assay allows for the opportunity to screen for compounds or molecules that affect the contractility of the muscle.
Skinned papillary muscle fibers were cycled through buffers containing a constant concentration magnesium chloride, ATP, creatine phosphate, but increasing concentrations of calcium. As the muscle fiber goes from buffers containing low concentrations of calcium to buffers containing high concentrations of calcium, the force developed increases with increasing concentration. Thus, plotting the force produced versus calcium concentration provides a sigmoidal curve, yielding the maximal force produced (Fmax) and the midpoint calcium concentration where the force produced is exactly half of the force produced at high calcium concentration. This is useful for measuring the calcium sensitivity (pCa50) of the muscle fibers.
The experiment and measurement of Fmax, pCa50, and ktr was performed for a muscle in the absence of the experimental peptide and then in the presence of 10 μM and 20 μM of the experimental peptide.

[2] = molecular target: B1; experiment: solid phase binding assay; peptide 0-20 µM against 20 µM S2^126 on adsorbed C0-C2
[3] = molecular target: cardiac myosin binding protein-C (cMyBP-C) in skinned papillary muscle fibers from mouse hearts (mouse, UniProt O70468 1-1270); experiment: cell-based or functional assay
[4] = molecular target: B1; experiment: solid phase binding assay; competition with S2^126 on adsorbed C0-C2
[5] = molecular target: B2; experiment: ITC; 300 µM S2^126 titrated into 20 µM C0-C2
[6] = molecular target: B1; experiment: solid phase binding assay, competition: C0-C2 adsorbed on the plate, 20 µM S2^126 as competitor plus rising peptide; bound S2^126 detected with rabbit anti-S2^126 and Alexa Fluor 568 secondary antibody (Fluorescence Endpoint λ603, relative)
[7] = molecular target: B1; experiment: ITC; 300 µM S2^126 titrated into 20 µM C0-C2
C0-C2 protein = molecular target: T2, C0-C2 protein (Homo sapiens, UniProt Q14896); experiment: Isothermal titrating calorimetry (ITC); type: binding; settings: 300 μM S2^126 titrated to 20 μM C0-C2 protein; read-out: dissociation constant (kd)
T2 construct: 6X His; made in house; host or cells: E. coli BL21
Protocol: Isothermal titrating calorimetry (ITC) was used to validate and verify the results from the SPBA assays of Example 2. In ITC experiments, the heat of binding between two proteins is measured by titrating one protein with the other protein and then measuring the heat released or absorbed through a reference fluid with a constant temperature. By titrating 300 μM of S2^126 to 20 μM of C0-C2 protein, the stoichiometry (η) of 0.98 and dissociation constant (kd) of 4.7 μM for S2^126-C0-C2 binding were determined.
Using the above stoichiometry and dissociation constant values as controls, all of the experimental peptides were titrated at 300 μM with 20 μM of C0-C2 protein and compared with the above S2^126 control.

[8] = at 20 μM peptide, 20 μM S2^126, 20 μM C0-C2 adsorbed

T1 sequence (Q14896 1-451 limits assumed): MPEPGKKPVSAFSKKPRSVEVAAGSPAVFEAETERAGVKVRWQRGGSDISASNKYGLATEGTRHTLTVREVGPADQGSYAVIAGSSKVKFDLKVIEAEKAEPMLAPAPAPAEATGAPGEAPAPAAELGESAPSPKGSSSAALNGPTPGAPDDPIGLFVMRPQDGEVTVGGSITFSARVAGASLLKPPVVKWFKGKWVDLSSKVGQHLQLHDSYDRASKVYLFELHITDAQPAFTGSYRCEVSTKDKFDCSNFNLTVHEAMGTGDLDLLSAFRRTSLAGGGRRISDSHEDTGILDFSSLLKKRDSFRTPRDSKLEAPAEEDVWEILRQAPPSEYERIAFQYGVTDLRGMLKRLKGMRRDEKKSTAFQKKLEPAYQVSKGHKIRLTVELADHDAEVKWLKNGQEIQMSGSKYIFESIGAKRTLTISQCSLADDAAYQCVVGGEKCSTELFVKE
T2 sequence (Q14896 1-451 limits assumed): as above

ability to compete for S2^126-C0-C2 binding (S2^126-C0-C2 binding): effectively compete
relative fluorescence (S2^126-C0-C2 binding; [8]): 0
Molecule: VKEMTERLEDEEEMNAELTAKKRKLEDECSELKKDIDDLELTLAK (listed as Mus musculus) [Amg 23006]
effect on muscle / contractile function [1]: successfully improved muscle function

ability to compete for S2^126-C0-C2 binding (S2^126-C0-C2 binding): unable to compete
Molecule: PLLKSAETEKEMANMKEEFGRVKDALEKSEARRKELEEKM (listed as Mus musculus) [Amg 23003]

ability to compete for S2^126-C0-C2 binding (S2^126-C0-C2 binding): effectively compete
relative fluorescence (S2^126-C0-C2 binding; [8]): 0
Molecule: CDQLIKNKIQLEAKVKEMTERLEDEEEMNAELTAKK (listed as Mus musculus) [Amg 23005]
effect on muscle / contractile function [1]: successfully improved muscle function

ability to compete for S2^126-C0-C2 binding (S2^126-C0-C2 binding): unable to compete
Molecule: RKELEEKMVSLLQEKNDLQLQVQAEQDNLNDAEERCDQLIKNK (listed as Mus musculus) [Amg 23004]

ability to compete for S2^126-C0-C2 binding (S2^126-C0-C2 binding): effectively compete
relative fluorescence (S2^126-C0-C2 binding; at peptide concentrations above 15 μM): 0
Molecule: VKEMTERLEDEEEMNAELTAKK (listed as Mus musculus) [Amg 27119]
increase of maximal force produced by the fibers ([1]; peptide 10 μM and 20 μM versus control, particularly at higher calcium concentrations): about 30%
effect on muscle / contractile function [1]: highly effective in improving contractile function

ability to compete for S2^126-C0-C2 binding (S2^126-C0-C2 binding): unable to compete
Molecule: ETEKEMAMVSLLQAEERCDQDIDDLELTLAK [Amg 23050, scramble control peptide, reference compound]

relative fluorescence [2]: ~1 relative fluorescence
Molecule: ETEKEMAMVSLLQAEERCDQDIDDLELTLAK [Scramble control Amg 25030]

maximal force produced by skinned papillary muscle fibers (Fmax) [3]: 13%
rate of force redevelopment (ktr) at pCa 5.7 [3]: 1.5 fold
stoichiometry [4]: 1
Molecule: CDQLIKNKIQLEAKVKEMTERLEDEEEMNAELTAKK [Amg 23005]

relative fluorescence [2]: ~1 relative fluorescence
Molecule: DEEEMNAELTAKKR [Amg 27117]

Molecule: B1
Kd [5]: 4.7 µM

maximal force produced by skinned papillary muscle fibers (Fmax) [3]: ~30%
rate of force redevelopment (ktr) at pCa 5.7 [3]: 2.5 fold
IC50 (read off the curve) [6]: ~6 µM
Molecule: VKEMTERLEDEEEMNAELTAKK (also called myopeptide) [Amg 27119 (mouse myosin S2 subset)]

relative fluorescence [2]: ~1 relative fluorescence
Molecule: ETEKEMAMVSLLQAE [Amg 27120]

relative fluorescence [2]: ~1 relative fluorescence
Molecule: PLLKSAETEKEMANMKEEFGRVKDALEKSEARRKELEEKM [Amg 23003]

Molecule: B2
stoichiometry (η) [7]: 0.98

Molecule: B3
Kd (C0-C2 protein): 4.7 µM

relative fluorescence [2]: ~1 relative fluorescence
Molecule: RKELEEKMVSLLQEKNDLQLQVQAEQDNLNDAEERCDQLIKNK [Amg 23004]

relative fluorescence [2]: ~1 relative fluorescence
Molecule: KLEDECSELKKDIDDLELTLAK [Amg 27118]

maximal force produced by skinned papillary muscle fibers (Fmax) [3]: 13%
rate of force redevelopment (ktr) at pCa 5.7 [3]: 1.5 fold
stoichiometry [4]: 1
Molecule: VKEMTERLEDEEEMNAELTAKKRKLEDECSELKKDIDDLELTLAK [Amg 23006]
